{"source": "patent US20260250397A1", "about": "“TREATMENT OF GASTRIC CANCER” (AMGEN INC., priority 2022, published 2026)", "key": {"[1]": {"conditions": "cited from earlier work"}, "[2]": {"assay": "Phase 1b study (Example 10): bemarituzumab serum concentration / PK with CAPOX with or without nivolumab", "type": "in vivo, human", "conditions": "for Cycle 1 Cmax (median) / Cycle 1 Ctrough (median) / Cycle 2 Cmax (median) / Cycle 2 Ctrough (median): serum, preliminary", "text": "The actual sample collection date and time (24-hour clock time) of each sample will be recorded."}, "[3]": {"assay": "Phase 1b study (Example 10): safety of bemarituzumab with CAPOX with or without nivolumab", "type": "in vivo, human", "conditions": "cohort A (DL1 & DL2) and cohort C; based on the known bemarituzumab safety profile"}, "[4]": {"assay": "Pharmacokinetics after intravenous administration in cynomolgus monkeys", "type": "in vivo", "description": "(§1) The half-life was dose-dependent, ranging from 0.8 days at the lowest doses (1 to 1.5 mg/kg) to at least 8 days at the highest doses (100 to 150 mg/kg) tested in cynomolgus monkeys. […] Target-mediated clearance was saturable, marked by dose-proportional increases in exposure at doses exceeding this level when dosed at weekly intervals. […] As such, it is contemplated that in some embodiments, subjects treated with bemarituzumab are not pregnant."}, "[5]": {"assay": "Embryo-fetal development with prenatal and postnatal development study", "type": "in vivo", "conditions": "all dose levels (5 to 100 mg/kg/doses)", "description": "as §1"}, "FGFR2b": {"target": "T1, FGFR2b (Homo sapiens, UniProt P21802)", "T1 construct": "in cell culture in FGFR2b overexpressing gastric and breast cancer cell lines; endogenous in cells", "T1 sequence (P21802 22-822 isoform P21802-3 limits assumed)": "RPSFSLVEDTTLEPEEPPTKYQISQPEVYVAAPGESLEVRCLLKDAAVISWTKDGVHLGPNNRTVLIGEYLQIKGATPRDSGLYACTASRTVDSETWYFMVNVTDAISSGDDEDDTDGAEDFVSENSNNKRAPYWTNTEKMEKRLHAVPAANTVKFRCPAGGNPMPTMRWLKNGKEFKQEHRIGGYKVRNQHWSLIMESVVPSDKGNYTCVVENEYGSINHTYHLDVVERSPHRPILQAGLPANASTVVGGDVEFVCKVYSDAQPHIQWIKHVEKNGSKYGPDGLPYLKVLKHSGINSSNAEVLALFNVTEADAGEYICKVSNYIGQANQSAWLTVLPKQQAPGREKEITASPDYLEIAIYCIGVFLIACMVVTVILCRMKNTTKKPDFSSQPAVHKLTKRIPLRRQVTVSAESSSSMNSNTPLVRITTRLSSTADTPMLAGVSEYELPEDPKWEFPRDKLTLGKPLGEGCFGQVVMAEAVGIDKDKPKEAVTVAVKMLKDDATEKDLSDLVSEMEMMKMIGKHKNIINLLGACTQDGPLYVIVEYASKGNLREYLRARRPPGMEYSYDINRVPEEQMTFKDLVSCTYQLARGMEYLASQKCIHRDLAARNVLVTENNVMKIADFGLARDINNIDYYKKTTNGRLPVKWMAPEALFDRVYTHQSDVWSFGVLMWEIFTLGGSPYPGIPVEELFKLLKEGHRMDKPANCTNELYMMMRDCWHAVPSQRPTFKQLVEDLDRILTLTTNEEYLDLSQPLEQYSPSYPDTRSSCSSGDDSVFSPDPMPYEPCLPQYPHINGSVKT", "assay": "FGF ligand-stimulated FGFR2b phosphorylation and receptor level in cell culture", "type": "cell-based"}, "[6]": {"test_system": "FGFR2b overexpressing gastric and breast cancer cell lines", "assay": "Cell proliferation in cell culture", "type": "cell-based", "conditions": "FGF ligand-stimulated"}, "[7]": {"test_system": "FGFR2b overexpressing gastric and breast xenograft models", "assay": "Tumor xenograft models", "type": "in vivo"}, "FGF23 signaling": {"test_system": "FGF23 signaling", "assay": "FGF23 signaling", "conditions": "in contrast to the FGFR tyrosine kinase inhibitors"}, "FcγRIIIa": {"target": "FcγRIIIa (Homo sapiens, UniProt P08637)", "sequence (P08637 17-254)": "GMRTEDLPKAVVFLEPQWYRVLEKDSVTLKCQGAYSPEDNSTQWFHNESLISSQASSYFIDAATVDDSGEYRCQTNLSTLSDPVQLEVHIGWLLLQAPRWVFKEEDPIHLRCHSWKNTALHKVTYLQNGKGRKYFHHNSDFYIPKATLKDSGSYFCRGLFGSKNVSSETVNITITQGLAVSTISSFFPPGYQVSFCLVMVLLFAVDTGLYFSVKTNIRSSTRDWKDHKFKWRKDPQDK", "assay": "Affinity for Fc receptor", "type": "binding", "conditions": "compared to the fucosylated molecule", "text": "In the method of some embodiments, the anti-FGFR2 antibody comprises the heavy chain of SEQ ID NO: 2 and the light chain of SEQ ID NO: 3, and is afucosylated."}, "FGFR substrate-2 (FRS2)": {"test_system": "FGFR substrate-2 (FRS2)", "assay": "Downstream signaling: phosphorylation of FGFR substrate-2 (FRS2)", "type": "cell-based", "description": "The effect on downstream signaling was measured by examining phosphorylation of a protein that is directly phosphorylated by the FGFR2 protein, FGFR substrate-2 (FRS2)."}, "[8]": {"assay": "Clinical safety of bemarituzumab (earlier studies, with mFOLFOX6)", "type": "in vivo, human", "text": "Corneal events are very common with bemarituzumab with the most common adverse event being dry eye. Although nearly all of the events have been non-serious, grade 3 events such ulcerative keratitis and punctate keratitis which can lead to decreases in visual acuity have been observed. The majority of the corneal events typically resolve with treatment interruption or discontinuation and standard of care interventions for the corneal events. As such, it is contemplated that in some embodiments, subjects treated with bemarituzumab are further treated with ocular lubricants. The ocular lubricants may be administered prophylactically to reduce the risk of corneal events."}, "[9]": {"conditions": "treatment with bemarituzumab, versus FGFR TKIs; cited from earlier work"}, "[10]": {"conditions": "Cohort A DL1: 15 mg/kg IV Q3W + 7.5 mg/kg C1D8 + CAPOX, N=6"}, "[11]": {"conditions": "Cohort A DL2: 22 mg/kg IV Q3W + 11 mg/kg C1D8 + CAPOX, N=4"}, "[12]": {"conditions": "Cohort C: 22 mg/kg IV Q3W + 11 mg/kg C1D8 + CAPOX + Nivo, N=6"}}, "note": "“Also recorded” adds a separate entry of the source. Read-outs that look alike come from different tables or passages of the source."}
{"compound": "CCCCCOC(=O)Nc1nc(=O)n([C@@H]2O[C@H](C)[C@@H](O)[C@H]2O)cc1F", "note": "[capecitabine]", "values": [{"measurement": "most common side effects", "setting": "[1]; (30%)", "value": "diarrhea, hand-and-foot syndrome, nausea, vomiting, abdominal pain, fatigue/weakness, and hyperbilirubinemia"}]}
{"compound": "O=C1[O][Pt]2([NH][C@@H]3CCCC[C@H]3[NH]2)[O]C1=O", "note": "[oxaliplatin]", "values": [{"measurement": "most common side effects", "setting": "[1]; (40%)", "value": "peripheral sensory neuropathy, neutropenia, thrombocytopenia, anemia, nausea, increase in transaminases and alkaline phosphatase, diarrhea, emesis, fatigue, and stomatitis"}]}
{"compound": "bemarituzumab", "values": [{"measurement": "drug-drug interaction (DDI) with respect to PK between bemarituzumab and nivolumab", "setting": "[2]; CAPOX background", "value": "No drug-drug interaction"}, {"measurement": "Cycle 1 Cmax (median)", "setting": "[2]; [10]", "value": 360.8, "unit": "µg/mL"}, {"measurement": "Cycle 1 Ctrough (median)", "setting": "[2]; [10]", "value": 111.5, "unit": "µg/mL"}, {"measurement": "Cycle 2 Cmax (median)", "setting": "[2]; [10]", "value": 457.0, "unit": "µg/mL"}, {"measurement": "Cycle 2 Ctrough (median)", "setting": "[2]; [10]", "value": 86.6, "unit": "µg/mL"}, {"measurement": "Cycle 1 Cmax (median)", "setting": "[2]; [11]", "value": 333.8, "unit": "µg/mL"}, {"measurement": "Cycle 1 Ctrough (median)", "setting": "[2]; [11]", "value": 125.9, "unit": "µg/mL"}, {"measurement": "Cycle 2 Cmax (median)", "setting": "[2]; [11]", "value": 655.8, "unit": "µg/mL"}, {"measurement": "Cycle 2 Ctrough (median)", "setting": "[2]; [11]", "value": 71.1, "unit": "µg/mL"}, {"measurement": "Cycle 1 Cmax (median)", "setting": "[2]; [12]", "value": 381.4, "unit": "µg/mL"}, {"measurement": "Cycle 1 Ctrough (median)", "setting": "[2]; [12]", "value": 130.1, "unit": "µg/mL"}, {"measurement": "Cycle 2 Cmax (median)", "setting": "[2]; [12]", "value": 549.8, "unit": "µg/mL"}, {"measurement": "Cycle 2 Ctrough (median)", "setting": "[2]; [12]", "value": 133.0, "unit": "µg/mL"}, {"measurement": "safety findings", "setting": "[3]", "value": "no new safety findings"}, {"measurement": "half-life", "setting": "[4]; highest doses (100 to 150 mg/kg) tested", "value": "at least 8 days"}, {"measurement": "half-life", "setting": "[4]; lowest doses (1 to 1.5 mg/kg)", "value": 19, "unit": "h"}, {"measurement": "PK behaviour", "setting": "[4]; rats and cynomolgus monkeys", "value": "dose-dependent, nonlinear PK"}, {"measurement": "reproductive and developmental toxicities", "setting": "[5]", "value": "Significant reproductive and developmental toxicities were observed at all dose levels"}, {"measurement": "FGFR2b receptor level", "setting": "FGFR2b", "value": "downregulates the receptor"}, {"measurement": "FGFR2b phosphorylation", "setting": "FGFR2b; FGF ligand-stimulated, FGFR2b overexpressing gastric and breast cancer cell lines", "value": "inhibits; also recorded: blocks"}, {"measurement": "cell proliferation", "setting": "[6]", "value": "inhibits"}, {"measurement": "tumor growth", "setting": "[7]; FGFR2b overexpressing gastric and breast xenograft models", "value": "inhibits tumor growth"}, {"measurement": "anti-tumor activity", "setting": "[7]; FGFR2b-overexpressing human tumor xenograft models, well-tolerated doses", "value": "dose-related anti-tumor activity with regression and complete responses"}, {"measurement": "FGF23 signaling", "setting": "FGF23 signaling", "value": "does not inhibit"}, {"measurement": "affinity for the Fc receptor FcγRIIIa", "setting": "FcγRIIIa", "value": "higher affinity"}, {"measurement": "downstream signaling (FRS2 phosphorylation)", "setting": "FGFR substrate-2 (FRS2)", "value": "inhibits downstream signaling"}, {"measurement": "safety profile", "setting": "[8]; human, in vivo", "value": "acceptable safety profile"}, {"measurement": "identified risks", "setting": "[8]; in combination with mFOLFOX6", "value": "corneal toxicity, infusion related reactions, gastrointestinal toxicity (stomatitis and mucosal inflammation), nail toxicity and increase in AST and ALT"}, {"measurement": "hyperphosphatemia", "setting": "[9]", "value": "not associated with the hyperphosphatemia"}]}
